# Reference: the nanobody polyreactivity screen of Harvey et al. (2022)
# Assay: yeast display, Sf9 membrane polyspecificity reagent, FACS + sequencing; frameworks hold sequencing errors
# Method in brief: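 A synthetic nanobody library was expressed on Saccharomyces cerevisiae BJ5465 by galactose induction for 36–48 hours. The library was stained for 1 hour at 4 °C with 10% biotinylated, detergent-solubilized Sf9 membrane reagent and enriched with streptavidin microbeads before FACS. Low and high (top ~1%) gates were set on anti-HA fluorescence for expression and streptavidin fluorescence for reagent binding, and each polyreactivity label reflects the gate of origin.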
row,Sequence,polyreactivity (PSR sort gate)
1,QVQLVESGGGLVQAGGSLRLSCADSGLIIARNAMVWYRHAPGTERELVAAITRGGSTYYADSVKGSFTISRDNAKNTVYLLMNSLKPEDTAVYYCNARFRRYYYYGMDYWGQGTQVTVSS,high polyreactivity
2,QVQLVESGGGLVQAGGSLRLSCADSGNIFNYYAMGWYRQAPGKERELVAAISTSGGRTYYADSVKGRFTISRDNAKNTVYLQMNSLKPEDTAVYYCAKVNRLYTYDYWGQGTQVTVSS,high polyreactivity
3,QVQLVESGGGLVQAGGSLRLSCADSGNILGYNAMGSYRQAPGKATELVAAISDNADSTYYADSVKGRFTISRDNAKNTVYLQMKSLKPEDTAVYYGAADWVHRTWLFWYTKYDYWGQGTQVTVSS,low polyreactivity
4,QVQLVESGGGLVQAGGSLRLSCADSGNTFSYYAMGWYRQAPGKEREFVAAIRKSGASTYYADSVKGRFTISRDNAKNTVYLEMNSLKPEDTAVYYCAADGQVSYALGFDYCGQGTQVTVSS,high polyreactivity
5,QVQLVESGGGLVQAGGSLRLSCADSGNTLSYYVMGWYRQAPGKERELVADITSGGTTNYADSVKGRFTISRDNAKNTVYLQMNSLKAEDTAVYYCAAGPYKRPPWLRQGGYDYWGQGTQVTVSS,low polyreactivity
6,QVQLVESGGGLVQAGGSLRLSCADSGPTIFYYAMGWYRTAPGKERELVAAIRRSGGRTRYADSVKGRFTISRDNAKNTVYLQMNSLKPEDTAVYYCAADDGTHRRGYDYWGQGTQVTVSS,low polyreactivity
7,QVQLVESGGGLVQAGGSLRLSCADSGRIFDLNAMGWYRQAPGKERELVAAITWSGDSTYYADSVKGRFTISRDNAKNTVYLQMNSLKPEDTAVYYCAAASRTSYSWVDYEFDYWGQGTQVTVSS,low polyreactivity
8,QVQLVESGGGLVQAGGSLRLSCADSGRIFGRYAMGWYRQAPGKERDLVAAIRSGGSTYYADSVKGRFTISRDNAKNSVYLQMNSLKPEDTAVYYCAADWGPFRLGYGYYYWGQGTQVTVSS,high polyreactivity
9,QVQLVESGGGLVQAGGSLRLSCADSGRIFGSNAMGWYRQAPGKERELVAAISWRGASTYYADSVKGRFTISRDNAKNTVYLQMNSLKPEDTAVYYCATRGQTRTTTRYYSWGQGTQVTVSS,high polyreactivity
10,QVQLVESGGGLVQAGGSLRLSCADSGRIIQYNAMGWYRQAPGKERDLDAAISYRGGSTYYADSVKGRYTISRDNAKNTVYLQMNSLKPEDTAVYYCAVEYPVYYYVEYDYWGQGTQVTVSS,high polyreactivity
11,QVQLVESGGGLVQAGGSLRLSCADSGRNFYIYAMGWYRKAPGKERELVAAISISGSTYYADSVKGRFTISRDNAKNTVFLQMNSLKPEDTAVYYCAARDPGVAVGAAFDSWGQGTQVTVSS,low polyreactivity
12,QVQLVESGGGLVQAGGSLRLSCADSGRNFYYYAMGWYRQAPGKERELVAAITSGGRTNYADSVKGRFTISRDNAKNNVYLQMNSLKPEDTAVYYGAATSKYKVRYSRYYYWGQGTQVTVSS,high polyreactivity
13,QVQLVESGGGLVQAGGSLRLSCADSGRTFFYNGMGWYRQAPGKERELVAAISGSGSRTYYADSVKGRFTISRDNAKNTVYLQMNSLKPEDTAVYYCAATRVISHYRFDYWGQGTQVTVSS,high polyreactivity
14,QVQLVESGGGLVQAGGSLRLSCADSGRTFGGYAMGWYRQAPGKQRELVASITWSGGSTYYADSVKGRFTISRDNAKNNVYLQMNSLKPEDTAVYYCGARTYQSRSTRMDYWGQGTQVTVSS,low polyreactivity
15,QVQLVESGGGLVQAGGSLRLSCADSGRTFKYYAMGWYRQAPGKARELVAAIRSTGGSKYYADSVKGRFTISRDNAKNTVYLQMNSLKPEDTAVYYCNARRYPRYVFSRYDYWGQGTQVTVSS,high polyreactivity
16,QVQLVESGGGLVQAGGSLRLSCADSGRTFNYYDMGWYRQAPGKERELVASITGSGGNTYYADSVKGRFTFSRDNAKNTVYLQMNSLKPEDTAVYYCAKAIGNFLYYYWLYHSSYEYDYWGQGTQVTVSS,low polyreactivity

row,Sequence,polyreactivity (PSR sort gate)
1,QVQLVESGGGLVQAGGSLRLSCADSGRTFRANAMGWYRQAPGKERELVAAITSTGDRTYYADSVKGRFTISRDNAKNTVYLQMNSLKPEDTAVYYGNAVYDLYHYWKFYYWGQGTQVTVSS,low polyreactivity
2,QVQLVESGGGLVQAGGSLRLSCADSGRTFRIYAMGWYRQAPGKERELVARITKRAGSTYYADSVKGRFTISRDNAKNTVYLQMNSLKPEDTAVYYCAATHYQWRGRYGYWRQGTQVTVSS,high polyreactivity
3,QVQLVESGGGLVQAGGSLRLSCADSGRTFRYYAMGWYRQAPGKERELVAAITSGGSTYYADSVKGRFTISRDNAKNTVYLQMNSLKPEDTAVYYCAAARYEPFIYDYGYWGQGTQVTVSS,low polyreactivity
4,QVQLVESGGGLVQAGGSLRLSCADSGRTFWSNSMGWYRQAPGKERELVARIDSTYYADSVKGRFTISRDNAKNTVYLQMNSLKPEDTAFYYCNADTIYYAGDFRYDYWGQGTQVTVSS,low polyreactivity
5,QVQLVESGGGLVQAGGSLRLSCADSGRTFYHDTMGWYRQAPGKERELVARITRRVGSTYYADSVKGRFTISRDNAKNTVYLQMNSLKPEDTAVYYCNAKSGLYRYLLDYWGQGTQVTVSS,high polyreactivity
6,QVQLVESGGGLVQAGGSLRLSCADSGRTFYSYAMGWYRQAPGKERELVAAISASGGRTYYADSVKGRFTISRDNAKNTVYLQMNSLKPEDTAVYYCAAYVSGYRWGYDYWGQGTQVTVSS,high polyreactivity
7,QVQLVESGGGLVQAGGSLRLSCADSGRTIYSNAMGWNIQAPGKERELVAAITGSSGSTYYADSVKGRFTISRDNAKNTVYLQMYSLKPEDTAVYYCAASCYGSLVRQLRLRGQGTQVTVSS,low polyreactivity
8,QVQLVESGGGLVQAGGSLRLSCADSGSIFGINTMGWYRQAPGKERELVAAITFGGGSTYYADSVKGRFTISRDNAKNTVYLQMNSLKPEDTAVYYCNRLGVYWVGTEFDYWGQGTQVTVSS,low polyreactivity
9,QVQLVESGGGLVQAGGSLRLSCADSGSIFGVYTRGWYSQAPGKERELVAAISGSGGSTYYADSVMGRFTISRDNAKNTVYFQMNSLIPEDTGVDYCATRFPNIPPYDSWGQGTQVTVSS,low polyreactivity
10,QVQLVESGGGLVQAGGSLRLSCADSGSIFGYNAMGWYRQAPGKEREFVAAISWSGGRTYYADSVKGRFTISRDNAKNTVYLQMNSLKPEDTAVYYCAAPSRPAPRFDYWGQGTQVTVSS,low polyreactivity
11,QVQLVESGGGLVQAGGSLRLSCADSGSIFLFNAMGWYRQAPGKERELVAAINRDDSTYYADSVKGRFTISRDNAKNTVYLQMNSLKPEDTAVYYCAAPVLHASYGYGYWGQGTQVTVSS,low polyreactivity
12,QVQLVESGGGLVQAGGSLRLSCADSGSIFNGNTMGWYRQAPGKERELVAAITSGGRTYYADSVKGRFTISRDNAKNTVYLQMNSLKPEDTAVYYCATRNPYYRSYYSYDYWGQGTQVTVSS,high polyreactivity
13,QVQLVESGGGLVQAGGSLRLSCADSGSIFQRYAVGWYRQAPGKEREVVAAFTASGGSTYYADSVKGRFTISRDNAKNTVYLQMNILKPEDTAVYYCATDSYWRQDLYRYEYWGQGTQVTVSS,high polyreactivity
14,QVQLVESGGGLVQAGGSLRLSCADSGSIFRVNAMGWYRQAPGKDRELVAAISSGGSTHYADSVKGRFTISRDNAKNTVYLQMNSLKPEDTAVYYCAVRYALVPYLWYYWGQGTQVTVSS,high polyreactivity
15,QVQLVESGGGLVQAGGSLRLSCADSGSIFRYNAMGWSRQAPGKERELVAAISGSGGSTYYADSVKGRFTISRDNAKNTVYLQRNSLKPEDTAVYYCNTRVYHYHYSYYPGGYWGQGTQVTVSS,high polyreactivity
16,QVQLVESGGGLVQAGGSLRLSCADSGSTFGYYAMGSYRQAPGKERELVAAITSTGRTKYADSVKGRVTISRDNAKNTVNLQMNSLKPEDTAVYYCAADIWGQGTQVTVSS,high polyreactivity
